Source: the RNAGym collection of RNA variant scans (doi:10.1101/gr.219683.116)

B1: mRNA-splicing (parent)
chain: AGUUGCUGCUGGGAGCUCCAGCACAGUGAAAUGGACAGAAGGGCAGAGCAA

Variants of: B1
Assay: exon inclusion enrichment index; higher = more inclusion; WT1 exon 5 minigene, HEK293

Variant | exon inclusion enrichment index
C6A U7A C9A U10A A14G G15C | 0.529
G5A U7C G8A U10C A39G A40G | 0.26
G5A U7C G8A U10C G38C | 1.83
C6A U7C C9A U10C C19A A20U | 2.07
G5C C6U G8C C9U U10C G43A | 3.52
G5A C6G U7G C9A G42A G43A | 0.0419
G5A U7C G8A U10C A31G U32C | 4.44
C6A U7A C9A U10A U27A G28A | 0.824
G5A U7C G8A U10C C24U A25C | 3.55
C22G A23G | 1.07
C19G A20G | 1.23
G5C C6G U7C | 0.636
G5C C6U G8C C9U U10C G33A G34A | 0.246
C6A U7A C9A U10A A40G G41A | 0.23
G5A C6U U7A G8U C9A G34U A35G | 0.014
G5C C6A U7C G8A U10A A39U | 0.00393
G5U G8U C9U A40U G41C | 0.508
C6A U7A C9A U10A A35G | 0.217
G5A U7C G8A U10C G11U G12A | 0.117
C6A U7C C9A U10C G43C C44A | 3.8
G5C C6U G8C C9U U10C G38C | 1.28

Variant | exon inclusion enrichment index
C6A U7C C9A U10C C16A | 3.82
G5A U7C G8A U10C A25G G26U | 3.09
G5A U7C G8A U10C A25G G26A | 4.73
U4A G5A U7C G8A U10C | 2
C6A U7A C9A U10A C44G | 1.03
C6A U7C C9A U10C U27C G28C | 3.85
G5C C6G U7C U10C A39C | 1.45
G5U G8U C9U C24U A25U | 0.127
C6A U7A C9A U10A A45U G46C | 0.614
C6A U7C C9A U10C G48U | 3.83
C6A U7C C9A U10C G41U G42U | 2.65
G5C C6A U7C G8A U10A C22U A23G | 0.114
C6A U7A C9A U10A G34C A35U | 0.104
C6A U7A C9A U10A A45C | 0.979
C6A U7A C9A U10A A45G | 1.6
G5A U7C G8A U10C G46A A47U | 2.29
G5A U7C G8A U10C A31C U32A | 1.81
G5C C6G U7C U10C G28C A29C | 2.81
G5U G8U C9U G13U A14G | 0.0118
G5U G8U C9U G13U A14U | 0.0249
G5A C6G U7G C9A U10A G11C | 0.0223

Variant | exon inclusion enrichment index
G5A C6G U7G C9A A37G G38U | 0.000981
G5A C6G U7G C9A A37G G38C | 0.00203
G5A U7C G8A U10C U27A G28U | 0.834
G5A C6U U7A G8U C9A A40U G41C | 0.359
G5A C6U U7A G8U C9A A40U G41U | 0.0246
C16G U17A | 0.231
G5C C6G U7C U10C A23U | 2.51
G5A C6G U7G C9A C24A A25G | 0.0011
G5A C6G U7G C9A G15U | 0.000857
C6A U7C C9A U10C U27A G28U | 2.04
C6A U7A C9A U10A U17A C18U | 0.445
C9G | 0.154
G5C C6G U7C U10C A23G C24G | 4.88
G5U G8U C9U G21C C22G | 0.384
G5U G8U C9U G21C C22A | 0.108
G5A C6U U7A G8U C9A G26A U27C | 0.504
G5C C6A U7C G8A U10A C36G A37U | 0.0414
A20C | 2.03
G5C C6A U7C G8A U10A A29C A30G | 0.291
C6A U7C C9A U10C A30C A31U | 3.15
U4G G5C C6G U7C U10C | 0.681

Variant | exon inclusion enrichment index
G5A C6G U7G C9A G41C | 0.013
C6A U7C C9A U10C C22U A23U | 2.51
C6A U7C C9A U10C G46U | 2.22
G5C C6U G8C C9U U10C G26C U27G | 3.22
G5A C6G U7G C9A G11U G12A | 0.00148
G5U G8U C9U G33A G34C | 0.0112
G5U G8U C9U G33C G34U | 0.0844
C6A U7C C9A U10C A30G A31C | 0.677
C6A U7C C9A U10C A30G A31G | 1.7
U3C U4C | 0.208
G5C C6G U7C U10C U27C G28C | 4.03
G5C C6A U7C G8A C9U U10A | 0.0185
U4G G5U C6A U7C C9A U10C | 2.56
G5A C6U U7A G8U C9A A45U | 0.132
G5A U7C G8A U10C G46U A47G | 1.85
G21C | 2.64
G5A C6G U7G C9A A25C | 0.0135
G2U C6A U7A C9A U10A | 1.36
C6A U7A C9A U10A G43C | 1
G5A C6U U7A G8U C9A C16A U17A | 0.0573
